Reference: publication PMC7939481

Target: human CaV2.1 (P/Q-type) voltage-gated calcium channel (human)

- τ activation of hCaV2.1 macroscopic current with co-expressed human Gβ1γ2, after a +150 mV prepulse: 3.26 ms
- τ activation of hCaV2.1 macroscopic current with co-expressed human Gβ1γ2, without prepulse (1.16-1.20 ms without G proteins): 10.6 ms
Substance: human G-protein Gβ1γ2 heterodimer (from UniProt P62873-1 1-340; P59768 1-71) (complex)
